Results reported in IntAct's records for PubMed 19351902.

B1: Short transient receptor potential channel 3 (Mus musculus), Q9QZC1 (parent)
chain: MSTKVKKCREPARVTLPAPEEEEDGEAEGGESQRRRRGWRGVNGGLEPPCPRAPPSPGPDASSEGSPSRWRTAGMRDKGRRQAVRGPAFMFGARGPSLTAEEERFLDAAEYGNIPVVRKMLEESRTLNVNCVDYMGQNALQLAVGNEHLEVTELLLKKENLARIGDALLLAISKGYVRIVEAILGHPGFAASRRLTLSPCEQELRDDDFYAYDEDGTRFSPDITPIILAAHCHKYEVVHLLLLKGARIERPHDYFCRCSDCAEKQRLDAFSHSRSRINAYKGLASPAYLSLSSEDPVLTALELSNELAKLANIEKEFKNDYRKLSMQCKDFVVGVLDLCRDSEEVEAILNGDLESAEPLERHGHKASLSRVKLAIKYEVKKFVAHPNCQQQLLTIWYENLSGLREQTIAIKCLVVLVVALGLPFLAIGYWIAPCSRLGKILRSPFMKFVAHAASFIIFLGLLVFNASDRFEGITTLPNITVIDYPKQIFRVKTTQFTWTEMLIMVWVLGMMWSECKELWLEGPREYIVQLWNVLDFGMLSIFIAAFTARFLAFLQATKAQQYVDSHVQESDLSEVTLPPEVQYFTYARDKWLPSDPQIISEGLYAIAVVLSFSRIAYILPANESFGPLQISLGRTVKDIFKFMVLFIMVFLAFMIGMFILYSYYLGAKVNPAFTTVEESFKTLFWSIFGLSEVTSVVLKYDHKFIENIGYVLYGIYNVTMVVVLLNMLIAMINSSYQEIEDDSDVEWKFARSKLWLSYFDDGKTLPPPFSLVPSPKSFVYFIMRITNFSKCRRRRLQKDLELGMGNSKSRLNLFTQSNSRVFESHSFNSILNQPTRYQQIMKRLIKRYVLKAQVDKENDEVNEGELKEIKQDISSLRYELLEDKSQATEELAILIHKLSEKLNPSVLRCE

Variants of: B1
Details: with kpcg_human PRKCG

| effect of a mutation on the interaction | Variant |
| --- | --- |
| disrupting interaction strength | T635A |
